Experimental data: the DeepSol protein solubility set

assay: soluble on expression in E. coli; label from the status in PepcDB or PDB records

| Sequence | soluble on expression in E. coli |
| --- | --- |
| MSLRKIKIKEIVCIIGLLGTLTAHSQNTVWQIGNKDKSAKEFKFYKNDYRNYINDVYLYEVGRNHSADFPYFLPGPSDAWAGGISGQAVIGFSLAEAPSPTTQIQLRLLFAETHPSSPPRLEVRLNSFEKSIQTPKGTNPEYLDTKETTSKELSVTLDIPADEFRAGNNTLTIRNISGSWVAFDQIKLTSDSPLQTNNLTTKASLVSSAFSPVLVVGKKKELRQPVKIKAVNWHHKKRPVELQVGNFPPERYVLSPGINNIETSIPEVTAPCELPIILKEQGKTVSKINEKATPVKKWTVYLVQHTHTDIGYTKPQTEILSEHLRYIDYAIEYCEQTKDYTNDAKFRWTCESAWAVDEYLKNRPEEQVNKLKKYIAEGQIEVASMYFNMSEIVDENSFKTFLQPVKEFRKHGIPSALAMQNDVNGIAWCLADYLPDLGIKYLWMGEHHYKSQVPFNMPTVFQWESPSGKPILTYRADHYNTGNFWGIEQGDIQKTEPKLLHYLSELERKHYPFDAVGVQYSGYFTDNSPPSIIECKLIREWNEKYAYPKLRSATASEFMDYVTERYGDKIPAYRAAYPDWWTDGFGSAARETAASRKTHSDMTAVEGLLSMAVLKDKCLPQATHQQIEHIHESLLFYDEHTFGASESVSDPLCENSQVQWGEKSAYAWEAVKRTQMLYETSVGLLQGDLRRGKNPTLTIFNTLNWKRSEMLTVYIDFEVIPRNQFFEITDFQGHSLKVQPIRYRREGCYYAIFAEDIPPMGYKTFEIVFKQPSTDTGTITINNASIENHFYKLQLNPDKGTIQSLYDKELNCELVDSSSPWELGAFIYEKLGNRDQLAQYRLDDYNRTGLSECRIIDSSNGPIYQRILLQGKSPGTDEAFGVNLEIKLYHDTKRIELEYAIKRLPETDPSGIYVAFPFQLPEGKLAFDVQGGTVISGKNQLEGTSTDWNTVQNFVSVQNEGHHHHHH | not soluble |
| MSLRKVIGIGETILDIIFRNDQPSAAVPGGSVFNGIVSLGRMGVNVCFISETGNDHVGNIILQFMRDNHIPTDHVNVFPDGKSPVSLAFLNEHSDAEYIFYKDYPKQRLDVLFPSINEDDIIVIGSYYALNPVLRDKILELLDIAKEKRAIVYYDPNFRSSHKNEAMKLAPTIIENLEYADIVRGSLEDFYYMYGIKDVEKIYKDKIKFYCPLFLCTAGAERISLRTNAISKEYPVAPLEAVSTIGAGDNFNAGLIYGMLKYDVRYRDLQHLSEETWDKVIQCGQDFAAEVCKSFNNSISGEFAANYREGHHHHHH | soluble |
| MSLRLEDIQAFLNVVELGSISAAAERMSLSKSVISKRVSDLERHLGVRLLYRSTRNVEPTEAGGFFYKSAKASLQDLNNAAESVALRENDLCGELRVMAPMSFGTLWLGPLVMEFMARNPRLEVVLQLDDRIVDFEKEGYDLAIRITRLQDSSLIARQLGTSRRVVCCSPEYLERHGPLQRIEDILCHPCIGYSHNTPSQLWSFEPRVAGEPARMITPRGRFNTNNGQTMRDAAVRGLGLAMLPLFIAAEDLAAGRLVEALPQERPLDDLIYAMYSRAATLSPKVKLFVQFLQQALGSPPWGVR | not soluble |
| MSLRLNDWQLAFEAYLLGEQAQARAVLQDSLIGGPTLDVETGLAIYHNAYMARLQEVMGSDFPAIRHWLGDAEFQALTQAYIRQCPSRHFSLRWLGQGFAEFILGHLVPEQGAPLAELARLEWAFTLAFDAADAQVLTVAAMAGLDVEQWPQLQLRLAPCVQWLDCRYNSVAQWRAVKEQADFPRSALLDQQQLCLVWRADRVCRYRSLPAEEATALRGMIEQRWNFAELCVGLAVTYAEGAPLQAVTWLKQWVEDGLVMRSESEGHHHHHH | not soluble |
| MSLRLTKGSVKHQAKTEAELKTVKTQLDTQKAQIEKHFAESAELFKTLINDYQKLYRHYATSSNNLLGEKDQKGLFTQQLITATDKSQNEQPRDYSEGASGLFKENKEEEGHHHHHH | soluble |
| MSLRRSLLLVDDDADHLAVLRCTLESCGFDVSLAPDGAAALALAHARAFDAVVLDIAMPGLSGWEVAERLRAAHGQSFRLVMLSANAEERHGPRGKEPDHDLFLMKPVELSALVDSLGKLLGLEWILSEGGGDTVLAQPRIDVSDSARTHVDRLKSLARIGHLRGLEAEIRSMQETDTGTAPLAARLFDCLDRCDLVAMRRVLEGIEGHHHHHH | not soluble |
| MSLRTKSWTDDLKVCNQTGVGEAINQIYKDDGRRCEGYESRDKKCLCISDNNTSLYAILSGHNGVTVAENALQEMAAELLLGQLNVCNTDEAVKELIRQSFMSVEKGYFDSINPHVATKTAIQLHLSADGMNQYEISQQFENVLQKLDSLNNALSVGSSAVLALIHRSHLYLGNIGNCRALLCKTDEHDTLTVTQLSVDHNLLNAEEAARLFRLGLMAQNFEGVPLYSTRCIGNYLGKAGYKDCNFLSSATAEPVIFEPEIVGGIQITPACRFLVLMSSGLCRALHEIFPGDASTGNRELVRMISEEFQNQSTLGGVAQSVVHRIVQAHHDTYMQLVEEHRSVTFNSRDDVTLLIRNFNYAEGHHHHHH | soluble |
| MSLRTTDIRVRDLYFEYEDFRYRTPIKFGGVALGRVTLLNVRMTVESAAGKAATGFGSMPLGNVWAYPSRLLTYDQTLGAMRFLASRIADGYRLCGLSGHPIDITHQLEPELLLAGNDFTAIHRPSDPVPKLAVLVVASAFDAALHDAYGKLHGLNCFRTYTREFLPDDLGHYLGAEFNGLHLDDFITHEPKPSMPLYHLVGALDPITPEDVTQPVGDGLPEHLAEWITRDGLTHLKIKLNGDDLGWDVERCVRINAVAEDAQRARGVTTWWYSLDFNERCQNVGYLIEFLQKLRERTPAGYDRVQYVEQPTARDLNAHPENKMHAAAKLKPVVIDESLLDLESLKLSMEMGYTGVAFKACKGQTQTLLLAAAAQKYGLFRCVQDLTCVGASLIHSAGLAAHIPGVAAIESNGRQYCPTANVAWDAKFPGVFTITGGSMNTALLNGVGLGAVSEGHHHHHH | soluble |
| MSLRTYENVVILTDLTAGTTYYYKIVSTNSTVDHFLSPRVPGDETPFSINAVIDLGVYGEDGYTIKGDKSKKDTIPTINPALNHTTIGRLASTVDDYEFVIHPGDFAYADDWFLSLDNLLDGENAYQAILENFYEQLAPISGRKPYMASPGNHEAACQEIPFTTGLCPDGQKNFTDFMHRFGRTMPSSFTSVSTNDSAKVFANQARELAQPPFWYSFEYGMAHIVMINTETDFEDAPSGKGGSAHLNGGPFGAKNQQLEFLEADLASVDRDVTPWVIVAGHRPWYTAGSACTPCQEAFEDLLYTYGVDLGVFGHVHNAQRFLPVYNSVADPNGMQDPKAPMYIVAGGAGNIEGLSSITKQLDFTEFANDEDYTYSTIRFLDRNHLQVDFINSVSGEVLDTSTLYKSHEARFVREGHHHHHH | not soluble |
| MSLSAHVEYFKPPAESELPDNAYGKLVREGYALFVDTKRLAPQFVGNGLNCSNCHLDQGRLANSAPLWGAYPMYPAYRKKNDKVNTFAERLQGCFQFSMNGGKPPAADSPQITALSVYAYWLASKAPLGVELPGRGYPDVAQPAKGYDLKQGAAVYQAQCAVCHGDNGQGQKAGADYVMPPLWGKDSYNWGAGMHRINTAASFIKHNMPLGKGGSLSDQQAWDVAAFVNSHERPQDPRLVEGSIEKTRVKFHANDGVNLYGQTVEGVLIGQGIREGHHHHHH | not soluble |
| MSLSAPASEIAALILRGFDDYREQFREITDGARARFEQAQWQEAQRASAQRINLYEEKVAETVAGLRAGLADSELLDVERWPIIKSAYIAQIDLRLDDELAETWFNSIFCGLFSHDNISDGTMFVHTTRPSLRAHARAPYTRTYRPGGDLRQALEKIFDDYRFDVPYDDRERDLERIDALLHSNLPDWVCKDPDLAIELIGSVFYRNKGAYLVGRLFTPDEQWPLVFPLLHREDHGIQFDTVITDEAEVSIIFSFTRSYFMVDVPVPAELVAFLKRLLPGKHLAELYTSIGFYKQGKSEFYRALINHLATTDDRFVMAPGVRGMVMSVFTLPGFNTVFKIIKDRFNPSKSVDHATVIQKYQLVKNHDRVGRLADTQQFADFRFPVSKFEPECLAELLEVAPSTVVMEGDVVLIRHCWTERRMTPLNIYLENASEAQTREALNDYGLAIKQLAAANIFPGDMLLKNFGVTRHGRVVFYDYDEICYLTEVNFRYIPEPRFPEDEMSSEPWYSVGPNDVFPEEFPRFLFVDLNQRRLFAKLHGNLYDAKYWQGLQEQIREGKVIDVFPYRRQETPEQLLEGHHHHHH | soluble |
| MSLSDNAQHLYVNGNVGSSTEEITSVEYSKLLQLKLIDESLSFQWCNNYTVLSIYSMKETFARKTIYIHFPKPLLNKWFTAVVYESSETTSNLCFDVILKDGIFINLSLPIDFILSRTRQNEYPENWLKVLNPYDFSVRPPQCLFHVDNTFSVVFLKDGGLLGLKRIPLEILNDFELQPVLFNDSSYFQSFTRMFSKYDNHNSAVVSAELLNDKYLVTLTNDATIKIWDLTTYQLNAHFDLKEKNQQVNYGAAGKYMIICGSLLFVYLPAGNGSFQVIQLENTHSSRISFKPLNVNIPLNLSSYSIWSLIDIQLVKSSIVKQSGLNLVLLWKSNTVTKLQLLSFEDSLYSSYKWIDGNSTYLSDLLDDSDLITNGNMEKALLNLKSHYSQSTYDDAQKILNKNNVMVQINDPHNQDYLNNLEALLKELHKQYQEPSTLTILDDEIIVVNSLHMYHHSTYKLDSQLETIFFNIFEREGHHHHHH | soluble |
| MSLSELIDNRAQRVRTLKGIIKRLHAGDAPDEVRNSLKELVCQTDYSEVMAMEQELIADGMPVEEIQGMCDLHSQVTREVLVQLAPAPVPPGHPVDTFRRENKALRESAARLQKAMNGVLETADDGDASARLLEWRQALNELQDVDKHYQRKEHLLSTCLERHGITGPSKVMWGKDDQIRELLKDTSVALRQSDTSVAELKVLAATTGAAAAGAVHEMIYKEEQILLPICLERFTADEWAEIWASSPRYGWCLVEPRQGYKPFTSEAAGRASVDGGVSLPTGALALEQLIAIFSTLPVDLTFVDANDRVAFFSEGPSRVFARSRTIVGRMVQNCHPPRSVDVVERILSDFREGRQNVAEFWLQFVGRFVHIRYFAVRSEDGRYLGTLEVTQDVGPIRALEGERRLLEYAEPSEGHHHHHH | soluble |
| MSLSFASSACFNEAGTMFRIEPNLIKAIALVESNLKKDSIGKNRDKKNNIKSFDYGLMQINQMHIPMLKKRGIIKDERDLLDNPCLNIKIGTEILYKHFSRCGMTWQCLGTYNAGFAMDNQKKRLQYAKKIYIVYTRLNELDNRKALAEGHHHHHH | soluble |
| MSLSFFFQSATVSDGELTGADLKDCISNNSLSSNASLPSVQSCRRLRERRVASWAVSFERLLQDPVGVRYFSDFLRKEFSEENILFWQACECFSHVPAHDKKELSYRAREIFSKFLCSKATTPVNIDSQAQLADDILNAPHPDMFKEQQLQIFNLMKFDSYTRFLKSQLYQECVLAEVEGRTLPDSQQVPSSPASKHSISSDHSNVSTPKKLSGKSKSGRSLNEDVGEEDSEKKRRGAFFSWSRSRSTGRSQKKKDHGDHAHDAPHANGGLCRRESQGSVSSAGSLDLSEACRTSALEKDKAAKHCCVHLPDGTSCVVAVKSGFSIKEILSGLCERHGINGAAVDLFLVGGDKPLVLHQDSSILATRDLRLEKRTLFRLDLVPINRSVGLKAKPTKPVTEVLRPVVAKYGLDLGSLLVRLSGEKEPLDLGAPISSLDGQRVILEERDPSRGKVSTDKQKGAPVKQNSAVNSSPRNHLAMGEERTLGKSNSIKIRGENGKSARDPRLSKREESIAKIGKKEYQKINLDEAEEFFELISKAQSNRADDQRGLLRKEDLVLPEFLRLPAGSSELALSSPPPVKGYSKRAVTGHGQEGAAQTEESYSDSPATSPASAQSPCSAYSPGSAHSPGSAHSTPGPPGTTQPGEKPTKPSCVSMVQEGTTQAWRRLSPGMEAGGIQTVEDEQVADLTLMGEGDISSPNSTLLPPPPTPQDTPGPPRPGTSRF | soluble |
